Data from publication PMC8379338, “Structures of heat shock factor trimers bound to DNA” (iScience, 2021).

Columns and labels:
[1] = biological target: HSF2-DBD trimer (Homo sapiens, UniProt Q03933 7-112); experiment: X-ray crystallography; 1.75 A; Co-crystallization at 20 C, hanging drop; protein stock in 20 mM Tris pH 8.0, 150 mM NaCl, 1 mM DTT, 0.2 mM EDTA; DNA annealed in TE; protein:DNA 2:1.5 (2-site) or 3:1.2 (3-site); HSF2 3-site reservoir 0.1 M HEPES pH 7.5, 25% PEG; details: protein: recombinant; tags: His6 (N-terminal, between MBP and DBD; MBP removed in vivo by TEV protease); chain copies: 3; 20 bp, 5' overhang 1 nt on both strands
[2] = biological target: T1, HSF1-DBD trimer (Homo sapiens, UniProt Q00613 15-120); experiment: X-ray crystallography; 2.4 A; Co-crystallization at 20 C, hanging drop; protein stock in 20 mM Tris pH 8.0, 150 mM NaCl, 1 mM DTT, 0.2 mM EDTA; DNA annealed in TE; protein:DNA 2:1.5 (2-site) or 3:1.2 (3-site); HSF2 3-site reservoir 0.1 M HEPES pH 7.5, 25% PEG; details: protein: recombinant; tags: His6 (N-terminal, between MBP and DBD; MBP removed in vivo by TEV protease); chain copies: 3; 22 bp, 5' overhang 1 nt on both strands
[3] = biological target: T1, HSF1-DBD trimer; experiment: X-ray crystallography; 2.36 A; Co-crystallization at 20 C, hanging drop; protein stock in 20 mM Tris pH 8.0, 150 mM NaCl, 1 mM DTT, 0.2 mM EDTA; DNA annealed in TE; protein:DNA 2:1.5 (2-site) or 3:1.2 (3-site); HSF2 3-site reservoir 0.1 M HEPES pH 7.5, 25% PEG; details: protein: recombinant; tags: His6 (N-terminal, between MBP and DBD; MBP removed in vivo by TEV protease); chain copies: 3; 23 bp, 5' overhang 1 nt on both strands
[4] = biological target: the molecule itself; experiment: crystal structure; DBD co-crystallised with a sticky-ended three-site HSE DNA duplex (21 bp for HSF2; 23 bp and 24 bp for HSF1); protein:DNA molar ratio 3:1.2; hanging drop, 20°C; three DBD copies on one DNA duplex
[5] = biological target: HSF2-DBD (Homo sapiens, UniProt Q03933 7-112); experiment: X-ray crystallography; 1.7 A; Co-crystallization at 20 C, hanging drop; protein stock in 20 mM Tris pH 8.0, 150 mM NaCl, 1 mM DTT, 0.2 mM EDTA; DNA annealed in TE; protein:DNA 2:1.5 (2-site) or 3:1.2 (3-site); HSF2 3-site reservoir 0.1 M HEPES pH 7.5, 25% PEG; details: protein: recombinant; tags: His6 (N-terminal, between MBP and DBD; MBP removed in vivo by TEV protease); chain copies: 2; blunt; self-complementary, 2 copies of the strand
[6] = biological target: HSF1-DBD (Homo sapiens, UniProt Q00613 15-120); experiment: X-ray crystallography; 2.0 A; Co-crystallization at 20 C, hanging drop; protein stock in 20 mM Tris pH 8.0, 150 mM NaCl, 1 mM DTT, 0.2 mM EDTA; DNA annealed in TE; protein:DNA 2:1.5 (2-site) or 3:1.2 (3-site); HSF2 3-site reservoir 0.1 M HEPES pH 7.5, 25% PEG; details: protein: recombinant; tags: His6 (N-terminal, between MBP and DBD; MBP removed in vivo by TEV protease); chain copies: 2; blunt; self-complementary, 2 copies of the strand

B1: 21 bp 3-site HSE (dsDNA)
DNA 1: TGCGTTCTAGAATATTCGCGG
DNA 2: ACCGCGAATATTCTAGAACGC
**Q.** Does B1 bind [1]?
**A.** binds

B2: 23 bp 3-site HSE (dsDNA)
DNA 1: TGGCGTTCTAGAATATTCGCGGA
DNA 2: ATCCGCGAATATTCTAGAACGCC
**Q.** Does B2 bind [2]?
**A.** binds

B3: 24 bp 3-site HSE (dsDNA)
DNA 1: TGTGCGTTCTAGAATATTCGCGAG
DNA 2: ACTCGCGAATATTCTAGAACGCAC
**Q.** Does B3 bind [3]?
**A.** binds

B4: DNA-binding domain (DBD) of human heat shock factor 2 (HSF2), residues 7-112 (domain or fragment, UniProt Q03933 7-112, looked up)
chain: VPAFLSKLWTLVEETHTNEFITWSQNGQSFLVLDEQRFAKEILPKYFKHNNMASFVRQLNMYGFRKVVHIDSGIVKQERDGPVEFQHPYFKQGQDDLLENIKRKVS
notes: The His6 tag lies between the TEV site and the DBD; MBP was removed in vivo by co-expressed TEV protease; In the crystals, two or three copies sit on one DNA duplex; also called HSF2-DBD; DBD I; source: E. coli Rosetta2(DE3) carrying pRK603, purified (Ni-NTA, cation exchange, SEC); not shown: MBP, N-terminal, cleaved
**Q.** Does B4 bind [4]?
**A.** binds

B5: 12 bp HtH HSE (dsDNA)
DNA 1: GGGAATATTCCC
DNA 2: GGGAATATTCCC
**Q.** Does B5 bind [5]?
**A.** binds

B6: 14 bp HtH HSE (dsDNA)
DNA 1: GCCGAATATTCGGC
DNA 2: GCCGAATATTCGGC
**Q.** Does B6 bind [6]?
**A.** binds

B7: DNA-binding domain (DBD) of human heat shock factor 1 (HSF1), residues 15-120 (domain or fragment, UniProt Q00613 15-120, looked up)
chain: VPAFLTKLWTLVSDPDTDALICWSPSGNSFHVFDQGQFAKEVLPKYFKHNNMASFVRQLNMYGFRKVVHIEQGGLVKPERDDTEFQHPCFLRGQEQLLENIKRKVT
notes: The His6 tag lies between the TEV site and the DBD; MBP was removed in vivo by co-expressed TEV protease; In the crystals, two or three copies sit on one DNA duplex; also called HSF1-DBD; DBD I; source: E. coli Rosetta2(DE3) carrying pRK603, purified (Ni-NTA, cation exchange, SEC); not shown: MBP, N-terminal, cleaved
**Q.** Does B7 bind [4]?
**A.** binds
